Experimental data from patent US20210277118A1 (Daiichi Sankyo, published 2021).

B1: variant 19362, monovalent anti-CD3 scFv-heterodimeric Fc (VL hC3E-1_6L3b (D52N), VH hC3E-1) (Fc fusion, not shown: a dimerising Fc or GST; small tags and cut ends)
scFv: EVQLVESGGGLVQPGGSLRLSCAASGVTFNYYGMSWIRQAPGKGLEWVASITNSGGRIYYPDSVKGRFTISRENTQKTLYLQMNSLRAEDTAVYYCTLDGRDGWVAYWGQGTLVTVSSGGGGSGGGGSGGGGSNFMLTQPHSVSESPGKTVTISCKRNTGNIGSNYVNWYQQLPGTAPKTIIYRNDKRPDGVPDRFSGSIDSSSNSASLAISGLQSEDEADYYCQSYSSGFIFGGGTKLTVL
notes: scFv order VH-(GGGGS)3-VL on Fc chain A; chain B is Fc only; also called v19362
B2: rat anti-CD3 monoclonal antibody C3-147 (antibody, rat IgG2b, V domains shown)
VH: EVQLVESGGGLVQPGRALKLSCVVSGVTFNYYGMSWIRQAPGKGLEWVASITNSGGRIYYPDSVKGRFTISRENTQKTLYLQMNSLRSEDTATYYCTLDGRDGWVAYWGQGTLVTVSS
VL: QFVLTQPNSVSTNLGTTVELSCKRNTGNIGSNYVNWYQQHEGRSPTTIIYRDDKRPDGVSDRFSGSIDRSSKSALLTINNVQTEDEADYFCQSYSSGFIFGGGTKLTVL
notes: Rat IgG2b with lambda chains (printed 'X chains'); tested as hybridoma culture supernatant
B3: variant 21831, monovalent anti-CD3 scFv-heterodimeric Fc (VL hC3E-1_1L1d, VH hC3E-1(N53S)) (Fc fusion)
scFv: EVQLVESGGGLVQPGGSLRLSCAASGVTFNYYGMSWIRQAPGKGLEWVASITSSGGRIYYPDSVKGRFTISRENTQKTLYLQMNSLRAEDTAVYYCTLDGRDGWVAYWGQGTLVTVSSGGGGSGGGGSGGGGSQVVLTQPPSASGTPGQRVTISCKRNTGNIGSNYVNWYQQLPGTAPKLLIYRDDKRPDGVPDRFSGSKSGTSASLAISGLQSEDEADYYCQSYSSGFIFGGGTKLTVL
notes: scFv order VH-(GGGGS)3-VL on Fc chain A; chain B is Fc only; also called v21831; not shown: Fc-only chain B is also left out

Legend:
[1] = target: T1, human CD3 expressed on T cells (Jurkat cells, human pan T cells/PBMC) (human, UniProt P07766 23-207); test: cell ELISA on CD3+ Jurkat cells
T1 construct: whole, on cells; On T cells CD3 epsilon stands in the CD3 complex with the gamma, delta and zeta chains and the T-cell receptor; only the epsilon chain is written out; also called CD3+ Jurkat cells; human T cells
Procedure: Cells were centrifuged and seeded in a 96-well filter plate in 50% complete culture medium/50% Blocking buffer. Equal volumes of 2× anti-CD3 scFv-Fc constructs or controls were added to cells and incubated for 1 hour. The plate was washed 4 times using vacuum filtration. An HRP-conjugated anti-human IgG Fc gamma specific secondary antibody was added to the wells and further incubated for 1 hour. The plate is washed 7 times by vacuum filtration followed by the addition of TMB substrate at room temperature. The reaction was stopped by adding 1 M sulfuric acid and supernatant was transferred into a clear 96-well plate. Absorbance (450 nm) was read on a Spectramax 340PC plate reader with path-check correction. Binding of the different scFv-Fc constructs to Jurkat cells and the apparent binding affinities are shown in FIG. 7 and Table 7, respectively.

[2] = target: T1, human CD3 expressed on T cells (Jurkat …); test: flow cytometry on human T cells
Procedure: (§1) Frozen human pan T cells or PBMCs were thawed and incubated with either media or serial dilutions of the anti-CD3 scFv-Fc constructs for one hour at 4° C. Commercially available SP34-2 antibody was used as positive controls while untreated cultures were used as negative controls. Following incubation with the anti-CD3 scFv constructs, the cells were washed and stained with a panel of conjugated antibodies specific for CD4, CD8, and IgG-Fc. The samples were acquired on a flow cytometer and analyzed using FlowJo version 10.1 software.

[3] = target: T2, cynomolgus monkey CD3 expressed on T cells (cynomolgus pan T cells/PBMC, HSC-F cell line) (cynomolgus monkey, UniProt Q95LI5 22-198); test: flow cytometry on cynomolgus T cells
T2 construct: whole, on cells; On T cells in the CD3 complex with the other subunits; only the epsilon chain is written out; also called cyno CD3; cyno T cells
Procedure: (§2) Frozen Cynomolgus monkey PBMCs were thawed then washed with RPMI-1640 media. Pan T cells were then isolated from the PBMCs using a negative isolation kit (Miltenyi Biotec, San Diego, Calif.) as per the manufacturer's instructions. The pan T cells were incubated in media alone or media containing serial dilutions of the anti-CD3 scFv-Fc constructs for one hour at 4° C. Commercially available SP34-2 antibody was used as positive controls while untreated cultures were used as negative controls. Following incubation with the anti-CD3 scFv constructs, the cells were washed and stained with a panel of conjugated antibodies specific for CD4, CD8, and IgG-Fc. The samples were acquired on a flow cytometer and analyzed using FlowJo version 10.1 software.

[4] = target: T3, Recombinant CD3epsilon/delta Fc fusion protein (Sino Biological) (human, UniProt P07766 23-126; P04234 22-105); test: SPR (ProteOn XPR36), Equilibrium Fit, mean of three runs
T3 construct: Bought reagent; also called recombinant CD3 fusion protein; human CD3 antigen; not shown: Fc of the bought fusion protein; not described
Procedure: (§3) All SPR binding experiments were carried out using a BioRad ProteOn XPR36 instrument (Bio-Rad Laboratories, Hercules, Calif.) at 25° C. with 10 mM HEPES, 150 mM NaCl, 3.4 mM EDTA, and 0.05% Tween 20 at pH 7.4. Recombinant CD3epsilon/delta Fc fusion protein (Sino Biological, Wayne, Pa.) was captured on anti-Fc capture sensorchips. Purified antibodies were indirectly captured on the sensorchip by binding the recombinant CD3 fusion protein when injected at 25 μL/min for 240s (resulting in approx. 500 RUs) following a buffer injection to establish a stable baseline. Resultant KD values were determined from binding isotherms using the Equilibrium Fit model with reported values as the mean of three independent runs.

[5] = target: T2, cynomolgus monkey CD3 expressed on T …; test: flow cytometry on cynomolgus pan T cells gated CD4+, detection with anti-IgG-Fc, geo MFI
Procedure: as §2

[6] = target: T3, Recombinant CD3epsilon/delta Fc fusion …; test: SPR (ProteOn XPR36), CD3epsilon/delta Fc fusion captured on anti-Fc chip, variant injected for 240 s; kinetic constants printed above the sensorgrams
Procedure: as §3

[7] = target: T4, monkey CD3 epsilon/delta expressed on transfected Lenti-X293T cells (cynoCD3epsilon-pcDNA3.1 and … (monkey, UniProt Q95LI5 22-198; Q95LI8 22-171); test: flow cytometry on transfected Lenti-X293T cells, hybridoma supernatant
T4 construct: whole, on cells
Procedure: Flow cytometry analysis of binding activity to monkey CD3. The monkey CD3 binding specificity of the antibody produced by each hybridoma determined to produce the antibody binding to human CD3 was further confirmed by flow cytometry. Each Lenti-X293T cell suspension was added at a concentration of 100 μL/well to a 96-well U-bottomed microplate and centrifuged to remove a supernatant. The cynoCD3c-pcDNA3.1- and cynoCD3δ-pcDNA3.1-transfected Lenti-X293T cells or the pcDNA3.1-DEST-transfected Lenti-X293T cells were suspended by the addition of the hybridoma culture supernatant and left standing at 4° C. for 1 hour. The cells were washed once with PBS containing 5% FBS, then suspended by the addition of Anti-Rat IgG FITC conjugate diluted 500-fold with PBS containing 5% FBS, and left standing at 4° C. for 30 minutes. The cells were washed twice with PBS containing 5% FBS and then resuspended in PBS containing 5% FBS and 2 μg/ml 7-aminoactinomycin D, followed by detection using a flow cytometer. The data was analyzed using Flowjo. After removal of 7-aminoactinomycin D-positive dead cells by gating, the FITC fluorescence intensity of live cells was plotted to a histogram.

[8] = target: T5, human CD3 epsilon/delta expressed on transfected cells (hCD3epsilon-pcDNA3.1 and hCD3delta-pcDNA3.1 in … (human, UniProt P07766 23-207; P04234 22-171); test: cell ELISA and flow cytometry on transfected cells, hybridoma supernatant
T5 construct: whole, on cells

[9] = target: T1, human CD3 expressed on T cells (Jurkat …); test: flow cytometry on human T cells gated CD4+, detection with anti-IgG-Fc, geo MFI
Procedure: as §1

T2 sequence (Q95LI5 22-198): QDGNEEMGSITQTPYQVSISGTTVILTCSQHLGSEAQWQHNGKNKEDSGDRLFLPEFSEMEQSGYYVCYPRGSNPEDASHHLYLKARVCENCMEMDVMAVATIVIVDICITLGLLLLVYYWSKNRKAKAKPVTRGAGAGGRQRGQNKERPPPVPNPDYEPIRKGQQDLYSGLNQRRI
T1 sequence (P07766 23-207): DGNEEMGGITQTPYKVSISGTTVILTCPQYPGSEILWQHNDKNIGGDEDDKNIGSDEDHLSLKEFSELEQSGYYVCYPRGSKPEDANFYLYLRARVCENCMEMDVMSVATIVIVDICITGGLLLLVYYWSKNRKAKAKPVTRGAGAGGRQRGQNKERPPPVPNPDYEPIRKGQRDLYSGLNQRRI
T3 sequence (P07766 23-126, stated change not applied, chain 1 of 2): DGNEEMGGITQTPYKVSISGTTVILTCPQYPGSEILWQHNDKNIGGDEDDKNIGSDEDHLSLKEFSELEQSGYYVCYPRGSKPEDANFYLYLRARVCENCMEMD
T3 sequence (P04234 22-105, stated change not applied, chain 2 of 2): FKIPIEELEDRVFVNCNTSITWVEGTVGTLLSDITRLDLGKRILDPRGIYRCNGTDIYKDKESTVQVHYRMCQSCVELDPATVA
T4 sequence (Q95LI5 22-198, stated change not applied, chain 1 of 2): as the sequence (Q95LI5 22-198) above
T4 sequence (Q95LI8 22-171, stated change not applied, chain 2 of 2): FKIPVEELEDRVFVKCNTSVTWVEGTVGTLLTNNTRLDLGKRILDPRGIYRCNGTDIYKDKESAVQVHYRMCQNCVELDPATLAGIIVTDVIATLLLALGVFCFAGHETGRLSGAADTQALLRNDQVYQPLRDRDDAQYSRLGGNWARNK
T5 sequence (P07766 23-207, stated change not applied, chain 1 of 2): as the sequence (P07766 23-207) above
T5 sequence (P04234 22-171, stated change not applied, chain 2 of 2): as the sequence (Q95LI8 22-171, stated change not applied, chain 2 of 2) above, with V5I, K15N, V20I, T32S, N33D, N34I, A64T, N74S, L83V, R141H counted along it

Binder | EC50 [1] | EC50 [2] | EC50 [3] | Kd [4] | EC50 (read off the curve) [5] | Kd [6] | koff [6] | kon [6] | binding result [7] | binding result [8] | EC50 (read off the curve) [9]
B1 | 1.35 nM | ~0.6 nM | 1.9 nM | 3 nM | ~2 µg/mL | 3.03 nM | 0.00242 s⁻¹ | 798000 M⁻¹ s⁻¹ | – | – | –
B2 | – | – | – | – | – | – | – | – | binds | binds | –
B3 | 3.96 nM | 1 nM | 40.7 nM | 22.9 nM | – | 23 nM | 0.0225 s⁻¹ | 977000 M⁻¹ s⁻¹ | – | – | ~1 µg/mL
